Test results from the supplement of paper PMC10567573.

B1: FAM50A (parent)
chain: KALEILRKDFSELRSAGVEQLMYI
B2: ZNF511 (parent)
chain: FDALDDYEHHYHTLHGNVCSFCKR
B3: C6orf223 (parent)
chain: TLARMSRRTRGPVERAAAAAAAAA

Variants of: B1
Assay: protein stability index of a GFP-peptide fusion (GPS, HEK-293T) (PSI 1-6); higher = more stable
Conditions: c terminus: a fixed tail appended
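Note: lentivirally expressed fusions sorted by FACS into six bins by GFP to DsRed ratio, PSI derived from sequencing read proportions per bin multiplied by bin number.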

Variant	protein stability index
KALEILRKDFSELRSAGVEQLMYE [I24E]	1.01
KALEILRKDFSELRSAGVEQLMYS [I24S]	1.54
KALEILRKDFSELRSAGVEQLMYN [I24N]	1.21
KALEILRKDFSELRSAGVEQLMYK [I24K]	1.94
KALEILRKDFSELRSAGVEQLMYQ [I24Q]	1.73
KALEILRKDFSELRSAGVEQLMYC [I24C]	1.98
KALEILRKDFSEARSAGVEQLMYI [L13A]	3.08
KALEILRKDFSEKRSAGVEQLMYI [L13K]	1.53
KALEILRKDFSEHRSAGVEQLMYI [L13H]	5.15
KALEILRKDFSEIRSAGVEQLMYI [L13I]	2
KALEILRKDFSELRSAGVEQRMYI [L21R]	3.83
KALEILRKDFSELRSAGVEQPMYI [L21P]	3.17
KALEILRKDFSELRSAGVEQAMYI [L21A]	1.78
KALEILRKDFSELRSAGVEQNMYI [L21N]	2.82
KALEILRKDFSELRSAGVEQGMYI [L21G]	3
KALEILRKDFSELRSAGVEQYMYI [L21Y]	3.12
KALEILRKDFSELRSAGVEQDMYI [L21D]	2.23
KALEILRKDFSELRFAGVEQLMYI [S15F]	2.51
KALEILRKDFSELRRAGVEQLMYI [S15R]	2.64
KALEILRKDFSELRAAGVEQLMYI [S15A]	3.13
KALEILRKDFSELRDAGVEQLMYI [S15D]	1.14
KALEILRKDFSELRHAGVEQLMYI [S15H]	4.69
KALEILRKDFSELRSAGVEQLMKI [Y23K]	2.67
KALEILRKDFSELRSAGVEQLMNI [Y23N]	1.03
KALEILRKDFSELRSAGVEQLMEI [Y23E]	2.41
KALEILRKDFSELRSAGVEQLMDI [Y23D]	1.45
KALEILRKDFSELRSAGVEDLMYI [Q20D]	3.81

Variant	protein stability index
KALEILRKDFSELRSAGVELLMYI [Q20L]	2.75
KALEILRKDFSELRSAGVEVLMYI [Q20V]	3.63
KALEILRKDFSELRSAGVEPLMYI [Q20P]	3.58
KALEILRKDFSELRSAGVEYLMYI [Q20Y]	2.58
KALEILRKDFSELRSAGVEKLMYI [Q20K]	4.59
KALEILRKDFSELRSAGVEMLMYI [Q20M]	1.54
KALEILRKDFSELRSAGVIQLMYI [E19I]	2.66
KALEILRKDFSELRSAGVPQLMYI [E19P]	4.03
KALEILRKDFSELRSAGVNQLMYI [E19N]	2
KALEILRKDFSELRSAGVWQLMYI [E19W]	1.95
KALEILRKDFSELRSAGVLQLMYI [E19L]	2.18
KALEILRKDFSELRSAGVFQLMYI [E19F]	2.9
KALEILRKDFSELRSAGVGQLMYI [E19G]	1.76
KALEILRKDFSELRSAGVQQLMYI [E19Q]	2.95
KALEILRKDFSELRSAGVHQLMYI [E19H]	3.15
KALEILRKDFSELRSAGKEQLMYI [V18K]	2.61
KALEILRKDFSELRSAGGEQLMYI [V18G]	2.52
KALEILRKDFSELRSAGYEQLMYI [V18Y]	2.02
KALEILRKDFSELRSAGIEQLMYI [V18I]	3.33
KALEILRKDFSELRSAGEEQLMYI [V18E]	2.9
KALEILRKDFSELRSAGSEQLMYI [V18S]	1.28
KALEILRKDFSELRSAGFEQLMYI [V18F]	4.7
KALEILRKDFSELRSAGLEQLMYI [V18L]	3.85
KALEILRKDFSELRSAGNEQLMYI [V18N]	2.35
KALEILRKDFSELESAGVEQLMYI [R14E]	1.68
KALEILRKDFSELYSAGVEQLMYI [R14Y]	1.69
KALEILRKDFSELNSAGVEQLMYI [R14N]	1.95

Variant	protein stability index
KALEILRKDFSELFSAGVEQLMYI [R14F]	3.71
KALEILRKDFSELSSAGVEQLMYI [R14S]	2.28
KALEILRKDFSELKSAGVEQLMYI [R14K]	1.51
KALEILRKDFSELWSAGVEQLMYI [R14W]	2.68
KALEILRKDFSELLSAGVEQLMYI [R14L]	4.57
KALEILRKDFSELCSAGVEQLMYI [R14C]	4.11
KALEILRKDFSELRSAYVEQLMYI [G17Y]	2.95
KALEILRKDFSELRSAHVEQLMYI [G17H]	1.88
KALEILRKDFSELRSAAVEQLMYI [G17A]	4.16
KALEILRKDFSELRSADVEQLMYI [G17D]	1.95
KALEILRKDFSSLRSAGVEQLMYI [E12S]	3.99
KALEILRKDFSRLRSAGVEQLMYI [E12R]	4
KALEILRKDFSTLRSAGVEQLMYI [E12T]	3.5
KALEILRKDFSVLRSAGVEQLMYI [E12V]	2.75
KALEILRKDFSELRSIGVEQLMYI [A16I]	2.76
KALEILRKDFSELRSEGVEQLMYI [A16E]	3.17
KALEILRKDFSELRSVGVEQLMYI [A16V]	2.07
KALEILRKDFSELRSAGVEQLCYI [M22C]	2.56
KALEILRKDFSELRSAGVEQLDYI [M22D]	2.22
KALEILRKDFSELRSAGVEQLFYI [M22F]	2.34
KALEILRKDFSELRSAGVEQLQYI [M22Q]	2.37
KALEILRKDFSELRSAGVEQLWYI [M22W]	2.3
KALEILRKDFSELRSAGVEQLPYI [M22P]	2.46
KALEILRKDFSELRSAGVEQLIYI [M22I]	1.97
KALEILRKDFSELRSAGVEQLTYI [M22T]	2.22
KALEILRKDFSELRSAGVEQLEYI [M22E]	1.27

Variants of: B2
Assay: as above
Conditions: c terminus: a fixed tail appended

Variant	protein stability index
FDKLDDYEHHYHTLHGNVCSFCKR [A3K]	2.87
FDALDDYEHHYHTLAGNVCSFCKR [H15A]	3.86
FDALDDYEHHYHTLGGNVCSFCKR [H15G]	3.92
FDALDDYEHHYHTLLGNVCSFCKR [H15L]	2.6
FDALDDYEHHYHTLRGNVCSFCKR [H15R]	3.83
FDALDDYEHHYHTLHGNVHSFCKR [C19H]	3.19
FDALDDYEHHYHTLHGNVKSFCKR [C19K]	3.27
FDALDDYEHHYHTLHGNVGSFCKR [C19G]	2.9
FDALDDYEHHYHTLHGNVASFCKR [C19A]	3.11
FDALDDYEHWYHTLHGNVCSFCKR [H10W]	3.04
FDALDDYEHYYHTLHGNVCSFCKR [H10Y]	3.22
FDALDDYEHTYHTLHGNVCSFCKR [H10T]	3.4
FDALDDYEHIYHTLHGNVCSFCKR [H10I]	2.53
FDALDDYSHHYHTLHGNVCSFCKR [E8S]	3.35
FDALDDYPHHYHTLHGNVCSFCKR [E8P]	3.81
FDALDDYLHHYHTLHGNVCSFCKR [E8L]	2.74
FDALDDYEMHYHTLHGNVCSFCKR [H9M]	3.44
FDALDDYEKHYHTLHGNVCSFCKR [H9K]	3.43
FDALDDYECHYHTLHGNVCSFCKR [H9C]	4.26
FDALDDYENHYHTLHGNVCSFCKR [H9N]	2.8
QDALDDYEHHYHTLHGNVCSFCKR [F1Q]	4.11
TDALDDYEHHYHTLHGNVCSFCKR [F1T]	4.28
FDALDDYEHHYHTLHGNVCSSCKR [F21S]	3.91

Variant	protein stability index
FDALDDYEHHYHTLHGNVCSQCKR [F21Q]	4.56
FDALDDYEHHYHTLHGNVCSECKR [F21E]	4.18
FDALDDDEHHYHTLHGNVCSFCKR [Y7D]	4.22
FDALDDHEHHYHTLHGNVCSFCKR [Y7H]	4.43
FDALDDGEHHYHTLHGNVCSFCKR [Y7G]	4.16
FAALDDYEHHYHTLHGNVCSFCKR [D2A]	3.4
FCALDDYEHHYHTLHGNVCSFCKR [D2C]	3.17
FMALDDYEHHYHTLHGNVCSFCKR [D2M]	3.01
FDALDDYEHHYHGLHGNVCSFCKR [T13G]	4.15
FDALDDYEHHYHDLHGNVCSFCKR [T13D]	3.91
FDALDDYEHHYCTLHGNVCSFCKR [H12C]	4.18
FDALDDYEHHYETLHGNVCSFCKR [H12E]	2.95
FDALDDYEHHYVTLHGNVCSFCKR [H12V]	3.27
FDALDDYEHHYSTLHGNVCSFCKR [H12S]	3.12
FDALDDYEHHYHTLHGNVCSFHKR [C22H]	2.6
FDALDDYEHHYHTLHGNVCSFMKR [C22M]	2.85
FDALDDYEHHYHTLHGNVCSFTKR [C22T]	2.59
FDALDDYEHHYHTLHGNVCSFVKR [C22V]	3.04
FDALDDYEHHYHTLHGNWCSFCKR [V18W]	2.8
FDALDDYEHHYHTLHGNMCSFCKR [V18M]	3.68
FDALDDYEHHYHTLHGNECSFCKR [V18E]	4.36
FDALDDYEHHYHTLHGNNCSFCKR [V18N]	3.89
FDALDDYEHHYHTLHGNHCSFCKR [V18H]	2.93

Variant	protein stability index
FDALDDYEHHYHTLHGNGCSFCKR [V18G]	4.05
FDALDDYEHHYHTLHGNVCFFCKR [S20F]	3.67
FDALDDYEHHYHTLHGNVCSFCKP [R24P]	3.17
FDALDDYEHHYHTLHGNVCSFCKL [R24L]	3.35
FDALDWYEHHYHTLHGNVCSFCKR [D6W]	1.67
FDALDGYEHHYHTLHGNVCSFCKR [D6G]	3.69
FDALDKYEHHYHTLHGNVCSFCKR [D6K]	2.97
FDALDNYEHHYHTLHGNVCSFCKR [D6N]	3.91
FDAKDDYEHHYHTLHGNVCSFCKR [L4K]	4.39
FDALNDYEHHYHTLHGNVCSFCKR [D5N]	3.98
FDALWDYEHHYHTLHGNVCSFCKR [D5W]	2.98
FDALIDYEHHYHTLHGNVCSFCKR [D5I]	3.45
FDALCDYEHHYHTLHGNVCSFCKR [D5C]	4
FDALVDYEHHYHTLHGNVCSFCKR [D5V]	3.54
FDALDDYEHHYHTLHGNVCSFCGR [K23G]	4.15
FDALDDYEHHTHTLHGNVCSFCKR [Y11T]	4.62
FDALDDYEHHCHTLHGNVCSFCKR [Y11C]	4.81
FDALDDYEHHYHTGHGNVCSFCKR [L14G]	4.22
FDALDDYEHHYHTSHGNVCSFCKR [L14S]	4.08
FDALDDYEHHYHTMHGNVCSFCKR [L14M]	3.99
FDALDDYEHHYHTLHGTVCSFCKR [N17T]	3.5

Variants of: B3
Assay: as above
Conditions: c terminus: a fixed tail appended

Variant	protein stability index
TLAIMSRRTRGPVERAAAAAAAAA [R4I]	1.94
TLARMSRRTRGPVERAAAAAVAAA [A21V]	2.18
TLARMSRRTRGPVERAAAAAMAAA [A21M]	1.95
TLARMSRRTRGPVERAAAAAWAAA [A21W]	2.83
TLARMSRRTRGPVERAAAAAAAAF [A24F]	2.35
TLARMSRRTRGPVERAAAAAAAAP [A24P]	2.23
TLARMSRRTRGPVERAAAAAAAAH [A24H]	4.49
TLARMSRRTRGPVERAAAKAAAAA [A19K]	3.43
TLARMSRRTRGPVERAASAAAAAA [A18S]	2.48
TLARMSRRTRGPVERAAPAAAAAA [A18P]	4.09
TLARMSRRTRGPVERAALAAAAAA [A18L]	2.92
TLARMSRRTRGPVERAANAAAAAA [A18N]	3.25
TLARMSRRTRGPVERAAYAAAAAA [A18Y]	2.13
TLARMSRRTRGPVERAAQAAAAAA [A18Q]	2.4
TLARMSRRTRGPVERAAWAAAAAA [A18W]	2.45
TLARMSRRTRGPVERAAMAAAAAA [A18M]	1.56
TLARMSRRTRGPVERAAIAAAAAA [A18I]	3.43
TLARMSRRTRGPVERAATAAAAAA [A18T]	3.57
TEARMSRRTRGPVERAAAAAAAAA [L2E]	4.7
TLARMSRRTRGWVERAAAAAAAAA [P12W]	2.27
TLARMSRRTRGPVERAAAAAAAIA [A23I]	3.49

Variant	protein stability index
TLARMSRRTRGPVERAAAAAAALA [A23L]	3.09
TLARMSRRTRGPVERAAAAAAACA [A23C]	3.99
TLARMSRRTRGPVERAAAAAAAYA [A23Y]	3.26
TLARMSRRTRGPVERAAAAAAAWA [A23W]	2.18
TLARMSRRTRGPVERAAAAAAATA [A23T]	4.46
TLARMSRRTRGPVERAAAAAALAA [A22L]	2.4
TLARMSRRTRGPVERAAAAAAFAA [A22F]	2.37
TLARMSRRTRGPVERAAAAAANAA [A22N]	3.38
TLARMSRRTRGPVERAAAAAATAA [A22T]	3.2
TLARMSRRTRGPVERAAAAAAKAA [A22K]	1.97
TLARMSRRTRGPVERAAAAAAWAA [A22W]	2.68
TLARMSRRTRGPVERAAAAAAYAA [A22Y]	2.66
TLARMSRRTRGPVERAAAAAAIAA [A22I]	2.23
TLARMSRRTRGPVERAAAAAACAA [A22C]	3.33
TLARMSRRTRGPVERSAAAAAAAA [A16S]	3.8
TLARMSRRTRGPVERAFAAAAAAA [A17F]	1.63
TLARMSRRTRGPVERATAAAAAAA [A17T]	3.76
TLARMSRRTRGPVERAYAAAAAAA [A17Y]	4.15
TLARMSRRTRGPVERARAAAAAAA [A17R]	3.5
TLARMSRRTRGPVEWAAAAAAAAA [R15W]	2.01
